# Measurements as given in patent US20230189818A1, “RNA-BASED CONTROL OF BOTRYTIS” (priority 2021, published 2023).
# B1: GS349: dsRNA trigger targeting B. cinerea CDC42 (XM_001545642.2); trigger SEQ ID NO 14, RNA 26, reverse complement 38 (nucleic acid, listed as Botrytis cinerea)
# sense: GUUGUCUUGUCUCGCUCAAGCUUGUCCUGUCUGGUCACUUUUCUUUCUGCCUGAUAAUCCAGACCUCGAAAAUAACCAAAAGAUUGGAAAUCGUUUGCUCAUCUUGCAUGCAUUAUUACUUUCCUGGAUCAAUCUCAUUCAACUCGUUCUCGUGCAUUUCAUUCAACCUCAACCCCUACUUUCAGUCAAUUCAAUUUAAUUCAAUCAUUCAAAUCUUUCAUUUCGCACACUUCACAUUCAACCAUCCUCUCUCAAUCAAAUAUCACCACCUCUCUUAUCGAACGUCAUUUUGCAUACAAUCAAUUCCUACAGACCGAGCGCAACUCGAUACAACCAUCGAAUAACUUCUCACACUUGCUUGUUGAAUUGAUUACUGAAGAAAGUGGAUUUCAAAGACCGAUUUUCCCCCUAGAUAUUCAAGAACGGCUUAUUCUUGUCUCGAGACAAAAC
# antisense: GUUUUGUCUCGAGACAAGAAUAAGCCGUUCUUGAAUAUCUAGGGGGAAAAUCGGUCUUUGAAAUCCACUUUCUUCAGUAAUCAAUUCAACAAGCAAGUGUGAGAAGUUAUUCGAUGGUUGUAUCGAGUUGCGCUCGGUCUGUAGGAAUUGAUUGUAUGCAAAAUGACGUUCGAUAAGAGAGGUGGUGAUAUUUGAUUGAGAGAGGAUGGUUGAAUGUGAAGUGUGCGAAAUGAAAGAUUUGAAUGAUUGAAUUAAAUUGAAUUGACUGAAAGUAGGGGUUGAGGUUGAAUGAAAUGCACGAGAACGAGUUGAAUGAGAUUGAUCCAGGAAAGUAAUAAUGCAUGCAAGAUGAGCAAACGAUUUCCAAUCUUUUGGUUAUUUUCGAGGUCUGGAUUAUCAGGCAGAAAGAAAAGUGACCAGACAGGACAAGCUUGAGCGAGACAAGACAAC
# Assays:
# [1] = system: Botrytis cinerea B05.10 isolate; test: Greenhouse whole plant assay (tomato 'Lanai', disease severity); format: in vivo; settings: final rating day (rating #3), two runs, three-week-old 'Lanai' tomato plant
# Botrytis = test: Open-air field trial on strawberry (Example 4.1, AUDPC of % disease severity); format: in vivo, Botrytis cinerea; settings: FIG. 6
# Experimental: RNAi compositions, each containing a dsRNA comprising a trigger sequence (GS349 or GS730) described herein were evaluated for ability to control botrytis on strawberry in open-air field trials. Non-formulated (dissolved in water) GS349 and GS730 were each tank mixed with water and the standard adjuvant Silwet L-77 0.1% v/v. GS349 was tested at concentrations of 25 grams of active ingredient per hectare (g ai/ha) and 50 g ai/ha and GS730 was tested at a concentration of 100 g ai/ha. Serenade ASO 85 g ai/ha, a standard biological fungicide, was used as a positive control. A second positive control group was treated with alternating applications of the chemical standards Teldor Plus 750 g ai/ha, Signum 600 g ai/ha, and Switch 500 g ai/ha. The trial also included an untreated group as a negative control.
# Test compositions and positive controls were sprayed onto strawberry plants in 12 applications. Plants were observed beginning 14 days after the first application and disease progress was assessed by determining the percentage of surface area of fruit that was affected by the disease (% Disease Severity). Disease severity was plotted over the length of the trial observations and area under disease progress curve (AUDPC) was calculated in order to measure the cumulative effect of the various treatments across multiple assessments. Means were separated according to Fisher's LSD, alpha (p)≤0.05.
# B. cinerea = test: Open-air field trial on strawberry (Example 4.4, AUDPC of % disease severity); format: in vivo, Botrytis cinerea; settings: FIG. 10
# Experimental: RNAi compositions, each containing a dsRNA comprising a trigger sequence (GS349) described herein were evaluated for ability to control botrytis on strawberry in open-air field trials. All test samples were formulated as described in Example 4.3 and were tank mixed with standard adjuvant, Activator 90 0.25% v/v. Compositions were tested at concentrations of 10, 20, 30, and 40 g ai/ha. A biological standard program of Regalia 470 g ai/ha and Stylet Oil 6800 g ai/ha was used as a positive control. A chemical standard program of Captan 2240 g ai/ha and Switch 525 g ai/ha was used for a second positive control. An untreated check group was used as a negative control.
# Compositions were applied to strawberry plants using a small plot sprayer delivering 50 gallons of water per acre. Five applications were made at weekly intervals. Disease state was evaluated beginning 6 days after the first application and ending 12 days after the fifth and final application. Percent Disease Severity was assessed and AUDPC was calculated in the same manner as noted in Example 4.1.
molecule,measurement,setting,value
B1,% control,[1]; 8 g ai/ha,46%
same,% control,[1]; 25 g ai/ha,59%
same,Disease control compared with the biological standard (AUDPC),"Botrytis; 50 g/h ai, Serenade ASO 85 g ai/ha",significantly improved control
same,Disease control compared with the chemical standard (AUDPC),"Botrytis; 50 g/h ai, alternating Teldor Plus, Signum, Switch",not significantly different
same,"Disease control compared with the biological standard, Serenade (AUDPC)","Botrytis; GS349 25 g ai/ha, GS730 100 g ai/ha, Serenade ASO 85 g ai/ha",not significantly different
same,Control of Botrytis vs. the untreated control (AUDPC),"Botrytis; non-formulated, Silwet L-77 0.1% v/v, 12 applications, GS349 25 and 50 g ai/ha, GS730 100 g ai/ha",significant control
same,Disease compared with the chemical standard program (AUDPC),"B. cinerea; 10, 20, 30 and 40 g ai/ha, Captan 2240 g ai/ha and Switch 525 g ai/ha",no significant difference
same,Disease compared with the biological standard program (AUDPC),"B. cinerea; 10, 20, 30 and 40 g ai/ha, Regalia 470 g ai/ha and Stylet Oil 6800 g ai/ha",no significant difference
same,Disease caused by B. cinerea vs untreated check (AUDPC),"B. cinerea; formulated, Activator 90 0.25% v/v, 10, 20, 30 and 40 g ai/ha, five weekly applications",significantly reduced disease
